The values that follow come from US20050221287A1 (CONSEJO SUPERIOR DE INVESTIGACIONES CIENTIFICAS PHARMACIA …, published 2005).

The target in test [1] is T1, STAT1 (human, UniProt P42224 2-750, limits assumed).
T1 sequence (looked up): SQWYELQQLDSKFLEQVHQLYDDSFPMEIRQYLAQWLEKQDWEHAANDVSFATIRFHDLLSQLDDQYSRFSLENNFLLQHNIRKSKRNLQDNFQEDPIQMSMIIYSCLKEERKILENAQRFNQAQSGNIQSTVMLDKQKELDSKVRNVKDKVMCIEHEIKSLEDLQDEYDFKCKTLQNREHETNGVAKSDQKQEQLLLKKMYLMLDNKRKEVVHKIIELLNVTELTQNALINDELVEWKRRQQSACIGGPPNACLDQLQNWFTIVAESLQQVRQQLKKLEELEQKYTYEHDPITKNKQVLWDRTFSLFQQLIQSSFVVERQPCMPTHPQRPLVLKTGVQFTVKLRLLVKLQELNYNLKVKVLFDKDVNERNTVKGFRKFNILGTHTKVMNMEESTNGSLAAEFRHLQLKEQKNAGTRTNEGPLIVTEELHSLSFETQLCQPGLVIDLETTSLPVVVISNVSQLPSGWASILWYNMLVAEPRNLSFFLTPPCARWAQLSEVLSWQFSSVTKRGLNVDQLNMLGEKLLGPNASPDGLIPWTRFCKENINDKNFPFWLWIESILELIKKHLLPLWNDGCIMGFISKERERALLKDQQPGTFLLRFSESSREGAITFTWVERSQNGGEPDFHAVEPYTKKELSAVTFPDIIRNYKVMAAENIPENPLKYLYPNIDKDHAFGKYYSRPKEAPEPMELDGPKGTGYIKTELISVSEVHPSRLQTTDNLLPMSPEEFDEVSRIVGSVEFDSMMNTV
Put plainly: association with CXCR4 in CXCL12-stimulated IM-9 cells.

Test [2] addresses STAT2 (human, UniProt P52630 1-851). The description is as above.
Test [3] addresses STAT3 (human, UniProt P40763 2-770, limits assumed). Described as above.
Test [4] has as its target T2, JAK1 (human, UniProt P23458 1-1154).
T2 construct: Endogenous protein of IM-9 cell lysates
The test is described as above.

Test [5] concerns the target T3, STAT4 (human, UniProt Q14765 1-748).
T3 sequence (looked up): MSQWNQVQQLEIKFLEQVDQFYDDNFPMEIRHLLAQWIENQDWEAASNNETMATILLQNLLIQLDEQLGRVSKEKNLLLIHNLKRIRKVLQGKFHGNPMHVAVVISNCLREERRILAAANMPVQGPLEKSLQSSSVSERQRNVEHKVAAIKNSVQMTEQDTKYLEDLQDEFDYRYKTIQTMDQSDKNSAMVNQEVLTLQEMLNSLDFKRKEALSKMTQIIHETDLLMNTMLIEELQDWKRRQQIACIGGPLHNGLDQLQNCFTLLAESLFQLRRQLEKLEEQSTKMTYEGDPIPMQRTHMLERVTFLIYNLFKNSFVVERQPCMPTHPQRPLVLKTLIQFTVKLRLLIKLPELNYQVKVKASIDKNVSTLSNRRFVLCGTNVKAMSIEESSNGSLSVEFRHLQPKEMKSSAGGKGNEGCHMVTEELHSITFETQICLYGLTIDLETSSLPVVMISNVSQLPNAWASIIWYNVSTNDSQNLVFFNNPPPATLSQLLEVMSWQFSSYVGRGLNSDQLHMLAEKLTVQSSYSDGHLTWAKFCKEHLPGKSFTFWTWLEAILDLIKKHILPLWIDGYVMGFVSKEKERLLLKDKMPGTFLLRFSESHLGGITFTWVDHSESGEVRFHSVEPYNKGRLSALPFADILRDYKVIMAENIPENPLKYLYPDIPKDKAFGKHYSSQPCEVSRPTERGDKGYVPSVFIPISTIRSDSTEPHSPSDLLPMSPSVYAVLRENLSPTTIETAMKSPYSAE
Put plainly: association with CXCR4 in CXCL12-stimulated IM-9 cells (data not shown).

Test [6] deals with T4, STAT6 (human, UniProt P42226 2-847).
T4 sequence (looked up): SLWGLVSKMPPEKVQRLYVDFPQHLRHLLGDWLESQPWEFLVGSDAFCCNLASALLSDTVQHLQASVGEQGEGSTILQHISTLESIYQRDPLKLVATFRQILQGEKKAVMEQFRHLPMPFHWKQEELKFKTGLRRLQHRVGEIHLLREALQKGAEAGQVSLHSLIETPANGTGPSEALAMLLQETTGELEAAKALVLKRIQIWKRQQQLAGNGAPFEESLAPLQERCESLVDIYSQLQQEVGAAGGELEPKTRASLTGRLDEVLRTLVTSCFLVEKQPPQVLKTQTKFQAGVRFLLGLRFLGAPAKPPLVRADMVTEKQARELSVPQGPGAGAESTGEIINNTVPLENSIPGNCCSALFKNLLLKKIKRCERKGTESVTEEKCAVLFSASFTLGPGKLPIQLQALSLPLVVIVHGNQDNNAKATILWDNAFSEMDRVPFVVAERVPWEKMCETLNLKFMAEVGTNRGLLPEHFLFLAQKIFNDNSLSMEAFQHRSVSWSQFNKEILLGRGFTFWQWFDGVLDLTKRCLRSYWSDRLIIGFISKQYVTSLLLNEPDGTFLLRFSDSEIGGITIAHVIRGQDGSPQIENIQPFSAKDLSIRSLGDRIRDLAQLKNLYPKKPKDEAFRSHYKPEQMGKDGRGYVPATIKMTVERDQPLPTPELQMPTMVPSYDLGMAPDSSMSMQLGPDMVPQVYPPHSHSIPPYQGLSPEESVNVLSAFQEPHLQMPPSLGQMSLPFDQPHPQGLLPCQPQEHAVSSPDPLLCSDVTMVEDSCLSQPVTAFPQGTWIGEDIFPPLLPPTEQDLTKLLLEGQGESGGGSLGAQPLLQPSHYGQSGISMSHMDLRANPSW
The description is as above.

Chain of STAT2 (P52630 whole entry): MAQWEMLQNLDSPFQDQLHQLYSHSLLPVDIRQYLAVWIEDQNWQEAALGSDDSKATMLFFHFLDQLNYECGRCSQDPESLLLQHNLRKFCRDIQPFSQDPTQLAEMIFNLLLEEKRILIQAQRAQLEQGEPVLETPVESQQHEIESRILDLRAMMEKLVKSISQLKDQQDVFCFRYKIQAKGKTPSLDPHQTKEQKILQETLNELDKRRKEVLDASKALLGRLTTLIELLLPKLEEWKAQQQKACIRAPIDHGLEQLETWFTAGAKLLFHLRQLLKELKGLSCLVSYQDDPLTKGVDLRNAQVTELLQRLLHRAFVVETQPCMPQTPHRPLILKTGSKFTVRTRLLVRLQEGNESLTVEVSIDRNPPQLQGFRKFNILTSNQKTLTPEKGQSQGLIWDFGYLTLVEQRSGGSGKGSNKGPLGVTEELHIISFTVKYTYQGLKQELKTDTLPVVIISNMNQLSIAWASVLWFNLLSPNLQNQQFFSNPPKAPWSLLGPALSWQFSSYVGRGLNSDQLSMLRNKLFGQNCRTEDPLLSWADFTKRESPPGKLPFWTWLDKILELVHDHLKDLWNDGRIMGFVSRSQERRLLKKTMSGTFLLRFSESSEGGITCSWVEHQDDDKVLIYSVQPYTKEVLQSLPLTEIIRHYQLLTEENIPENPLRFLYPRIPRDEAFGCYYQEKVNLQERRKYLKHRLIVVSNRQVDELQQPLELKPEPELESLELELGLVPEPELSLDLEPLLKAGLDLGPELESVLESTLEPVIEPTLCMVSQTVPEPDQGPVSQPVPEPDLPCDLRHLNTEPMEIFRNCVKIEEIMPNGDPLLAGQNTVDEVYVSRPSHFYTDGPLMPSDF
T2 sequence (P23458 whole entry): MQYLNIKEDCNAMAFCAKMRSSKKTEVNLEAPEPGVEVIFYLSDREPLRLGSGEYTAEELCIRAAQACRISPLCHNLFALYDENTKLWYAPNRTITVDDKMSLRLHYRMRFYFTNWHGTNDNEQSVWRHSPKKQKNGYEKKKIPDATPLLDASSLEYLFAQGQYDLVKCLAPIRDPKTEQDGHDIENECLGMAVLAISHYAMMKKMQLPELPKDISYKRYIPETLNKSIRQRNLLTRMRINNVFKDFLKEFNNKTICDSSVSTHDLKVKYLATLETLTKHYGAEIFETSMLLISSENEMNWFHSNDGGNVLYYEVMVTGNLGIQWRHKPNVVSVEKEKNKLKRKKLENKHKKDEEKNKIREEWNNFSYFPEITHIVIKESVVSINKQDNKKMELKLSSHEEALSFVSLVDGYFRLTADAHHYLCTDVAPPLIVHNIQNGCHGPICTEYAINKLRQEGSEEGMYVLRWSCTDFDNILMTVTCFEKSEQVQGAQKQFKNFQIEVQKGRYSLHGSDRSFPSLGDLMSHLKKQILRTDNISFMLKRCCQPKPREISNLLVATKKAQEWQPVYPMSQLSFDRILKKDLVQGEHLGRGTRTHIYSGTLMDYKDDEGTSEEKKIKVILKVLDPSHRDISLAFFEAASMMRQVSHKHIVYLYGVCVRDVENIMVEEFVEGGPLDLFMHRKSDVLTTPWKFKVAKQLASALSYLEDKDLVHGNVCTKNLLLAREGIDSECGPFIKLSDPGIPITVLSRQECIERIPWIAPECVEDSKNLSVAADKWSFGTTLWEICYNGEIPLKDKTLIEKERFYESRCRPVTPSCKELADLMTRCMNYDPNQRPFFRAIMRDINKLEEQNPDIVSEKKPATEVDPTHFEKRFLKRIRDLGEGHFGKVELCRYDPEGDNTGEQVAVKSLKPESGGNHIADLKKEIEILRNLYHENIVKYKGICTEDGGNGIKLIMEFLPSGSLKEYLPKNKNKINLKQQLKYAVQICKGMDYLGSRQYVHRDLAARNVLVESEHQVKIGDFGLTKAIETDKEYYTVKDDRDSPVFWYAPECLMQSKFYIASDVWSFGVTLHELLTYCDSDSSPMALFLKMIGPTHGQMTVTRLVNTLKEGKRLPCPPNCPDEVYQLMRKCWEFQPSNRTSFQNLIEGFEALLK
Chain of STAT3 (P40763 2-770 limits assumed): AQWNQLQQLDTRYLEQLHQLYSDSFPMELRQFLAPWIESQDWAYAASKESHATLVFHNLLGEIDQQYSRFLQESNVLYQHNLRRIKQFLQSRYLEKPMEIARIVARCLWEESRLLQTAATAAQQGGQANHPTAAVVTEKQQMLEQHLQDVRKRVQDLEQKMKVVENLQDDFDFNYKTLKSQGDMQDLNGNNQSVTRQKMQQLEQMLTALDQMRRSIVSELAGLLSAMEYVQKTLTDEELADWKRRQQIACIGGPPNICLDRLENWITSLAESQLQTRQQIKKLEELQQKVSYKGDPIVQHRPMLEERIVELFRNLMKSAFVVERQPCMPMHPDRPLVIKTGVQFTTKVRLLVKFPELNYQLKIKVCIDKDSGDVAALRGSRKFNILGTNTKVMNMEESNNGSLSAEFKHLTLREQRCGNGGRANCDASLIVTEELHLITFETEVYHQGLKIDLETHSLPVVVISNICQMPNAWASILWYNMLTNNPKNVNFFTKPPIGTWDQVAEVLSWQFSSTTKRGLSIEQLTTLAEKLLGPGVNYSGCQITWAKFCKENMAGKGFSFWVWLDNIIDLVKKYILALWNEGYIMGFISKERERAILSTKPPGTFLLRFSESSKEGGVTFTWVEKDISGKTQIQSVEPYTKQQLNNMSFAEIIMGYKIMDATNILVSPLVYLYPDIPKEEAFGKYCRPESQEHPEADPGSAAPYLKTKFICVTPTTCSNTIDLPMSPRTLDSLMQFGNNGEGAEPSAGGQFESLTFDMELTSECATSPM

B1: CXCR4 (receptor, human, UniProt P61073 1-352, looked up)
chain: MEGISIYTSDNYTEEMGSGDYDSMKEPCFREENANFNKIFLPTIYSIIFLTGIVGNGLVILVMGYQKKLRSMTDKYRLHLSVADLLFVITLPFWAVDAVANWYFGNFLCKAVHVIYTVNLYSSVLILAFISLDRYLAIVHATNSQRPRKLLAEKVVYVGVWIPALLLTIPDFIFANVSEADDRYICDRFYPNDLWVVVFQFQHIMVGLILPGIVILSCYCIIISKLSHSKGHQKRKALKTTVILILAFFACWLPYYIGISIDSFILLEIIKQGCEFENTVHKWISITEALAFFHCCLNPILYAFLGAKFKTSAQHALTSVSRGSSLKILSKGKRGGHSSVSTESESSSFHSS
notes: whole, on cells; Endogenous receptor of IM-9 cells: on the cell surface in flow cytometry, immunoprecipitated from digitonin lysates in the co-immunoprecipitations; also called CXCR4 receptor; the CXCR4
Consider B1, for which the binding result is given as “binds” in test [1]; “binds” in test [2]; “binds” in test [3]; “binds” in test [4]; “no binding” in test [5]; “no binding” in test [6].
